Experimental data taken from patent US20090324646A1 (INSTITUT PASTEUR, published 2009).
Read-outs that look alike come from different tables or passages of the source.

How the values were obtained:
[1] = target: peptide mimicking the histone H3 tail carrying pS10 modification
[2] = target: histone H3 purified from calf thymus, P68432
[3] = target: NF-κB p65 (endogenous, Caco 2 nuclear extracts) (human, UniProt Q04206 1-551); experiment: supershift EMSA of Caco 2 nuclear extracts with anti-p50 and anti-p65 antibodies
Sequence of NF-κB p65 (endogenous, Caco 2 nuclear extracts) (Q04206 whole entry, the tested form may be a part): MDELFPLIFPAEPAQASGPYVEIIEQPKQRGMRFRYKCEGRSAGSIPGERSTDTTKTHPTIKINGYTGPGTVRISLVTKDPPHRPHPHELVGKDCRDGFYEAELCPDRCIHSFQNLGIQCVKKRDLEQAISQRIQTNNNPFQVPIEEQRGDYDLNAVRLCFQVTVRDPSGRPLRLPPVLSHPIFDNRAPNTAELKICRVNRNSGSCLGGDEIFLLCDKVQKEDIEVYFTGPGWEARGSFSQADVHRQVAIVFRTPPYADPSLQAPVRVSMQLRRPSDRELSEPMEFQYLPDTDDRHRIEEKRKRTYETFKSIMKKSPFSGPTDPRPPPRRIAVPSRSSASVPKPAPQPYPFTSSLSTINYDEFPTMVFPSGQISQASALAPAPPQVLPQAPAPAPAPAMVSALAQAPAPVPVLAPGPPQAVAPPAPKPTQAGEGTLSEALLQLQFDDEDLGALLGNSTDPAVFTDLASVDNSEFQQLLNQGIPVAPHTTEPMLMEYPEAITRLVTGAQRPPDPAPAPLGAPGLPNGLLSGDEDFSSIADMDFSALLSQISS

[4] = tested on: 33P-labeled Erk2 (GST-Erk2 fusion protein phosphorylated in vitro by MEK1)
[5] = target: 33P-labeled Erk2 (GST-Erk2 fusion protein phosphorylated in vitro by MEK1); remark: listed apart in the source

B1: lambda phosphatase (protein)
chain: MRYYEKIDGSKYRNIWVVGDLHGCYTNLMNKLDTIGFDNKKDLLISVGDLVDRGAENVECLELITFPWFRAVRGNHEQMMIDGLSERGNVNHWLLNGGGWFFNLDYDKEILAKALAHKADELPLIIELVSKDKKYVICHADYPFDEYEFGKPVDHQQVIWNRERISNSQNGIVKEIKGADTFIFGHTPAVKPLKFANQMYIDTGAVFCGNLTLIQVQGEGA
- in vitro dephosphorylation of peptide [1]: in contrast to the lambda phosphatase, OspF did not directly dephosphorylate these substrates
- in vitro dephosphorylation (Western blot, anti-metK9-pS10 antibody) [2]: in contrast to the lambda phosphatase, OspF did not directly dephosphorylate these substrates

B2: NF-κB p50 (endogenous, Caco 2 nuclear extracts) (other)
chain: MAEDDPYLGRPEQMFHLDPSLTHTIFNPEVFQPQMALPTDGPYLQILEQPKQRGFRFRYVCEGPSHGGLPGASSEKNKKSYPQVKICNYVGPAKVIVQLVTNGKNIHLHAHSLVGKHCEDGICTVTAGPKDMVVGFANLGILHVTKKKVFETLEARMTEACIRGYNPGLLVHPDLAYLQAEGGGDRQLGDREKELIRQAALQQTKEMDLSVVRLMFTAFLPDSTGSFTRRLEPVVSDAIYDSKAPNASNLKIVRMDRTAGCVTGGEEIYLLCDKVQKDDIQIRFYEEEENGGVWEGFGDFSPTDVHRQFAIVFKTPKYKDINITKPASVFVQLRRKSDLETSEPKPFLYYPEIKDKEEVQRKRQKLMPNFSDSFGGGSGAGAGGGGMFGSGGGGGGTGSTGPGYSFPHYGFPTYGGITFHPGTTKSNAGMKHG
- binding result [3]: binds

B3: MKP1 (mammalian dual specific phosphatase, Upstate Cell Signaling) (enzyme, UniProt P28562 1-367, looked up, species assumed)
Dual specificity protein phosphatase 1: MVMEVGTLDAGGLRALLGERAAQCLLLDCRSFFAFNAGHIAGSVNVRFSTIVRRRAKGAMGLEHIVPNAELRGRLLAGAYHAVVLLDERSAALDGAKRDGTLALAAGALCREARAAQVFFLKGGYEAFSASCPELCSKQSTPMGLSLPLSTSVPDSAESGCSSCSTPLYDQGGPVEILPFLYLGSAYHASRKDMLDALGITALINVSANCPNHFEGHYQYKSIPVEDNHKADISSWFNEAIDFIDSIKNAGGRVFVHCQAGISRSATICLAYLMRTNRVKLDEAFEFVKQRRSIISPNFSFMGQLLQFESQVLAPHCSAEAGSPAMAVLDRGTSTTTVFNFPVSIPVHSTNSALSYLQSPITTSPSC
- Km [4]: 229 nM
- Vmax [4]: 6.01 pM/s
- dephosphorylation of 33P-labeled Erk2 (gel mobility in SDS-PAGE/autoradiography, Western blot) [4]: Dephosphorylation of Erk2 by both enzymes was confirmed
- kcat [4]: 0.0006 s⁻¹

B4: OspF phosphatase (purified recombinant protein) (protein)
chain: MPIKKPCLKLNLDSLNVVRSEIPQMLSANERLKNNFNILYNQIRQYPAYYFKVASNVPTYSDICQSFSVMYQGFQIVNHSGDVFIHACRENPQSKGDFVGDKFHISIAREQVPLAFQILSGLLFSEDSPIDKWKITDMNRVSQQSRVGIGAQFTLYVKSDQECSQYSALLLHKIRQFIMCLESNLLRSKIAPGEYPASDVRPEDWKYVSYRNELRSDRDGSERQEQMLREEPFYRLMIE
- in vitro dephosphorylation of peptide [1]: OspF did not directly dephosphorylate these substrates, even when the enzyme concentration was increased 100 fold
- in vitro dephosphorylation (Western blot, anti-metK9-pS10 antibody) [2]: OspF did not directly dephosphorylate these substrates, even when the enzyme concentration was increased 100 fold
- Km [5]: 204 nM
- Vmax [5]: 9.89 pM/s
- dephosphorylation of 33P-labeled Erk2 (gel mobility in SDS-PAGE/autoradiography, Western blot) [5]: Dephosphorylation of Erk2 by both enzymes was confirmed
- kcat [5]: 0.0001 s⁻¹
